According to PMC10474274, “Structural insights into mechanisms of Argonaute protein-associated NADase activation in bacterial immunity”:

Tests used:
[1] = target: Ago protein from Maribacter polysiphoniae (Maribacter polysiphoniae); test: cryo-EM structure; TIR-APAZ/Ago with gRNA and target ssDNA (1:1.5:2), tetramer of heterodimers, 2.95 Å
[2] = target: TIR-APAZ protein from Maribacter polysiphoniae (Maribacter polysiphoniae); test: as above
[3] = target: TIR-APAZ/Ago complex from Maribacter polysiphoniae (Maribacter polysiphoniae); test: as above
[4] = target: SIR2-APAZ;short prokaryotic Ago (SIR2-APAZ system) (Geobacter sulfurreducens;Geobacter …, UniProt Q74DF6;Q74DF5 1-587;1-473, |); test: cryo-EM; metal ion at 5'-phosphate; 2 mM MgCl2; heterodimer; 3.0 A; cryo-EM: complex:gRNA:target DNA 1:1.5:2; TIR system 25 mM Tris-HCl pH 7.5, 150 mM NaCl, 2 mM DTT, 2 mM MgCl2; SIR2 system 25 mM HEPES pH 7.9, 150 mM NaCl, 2 mM DTT, 2 mM MgCl2 (gel-filtration buffers); native PAGE conditions not in material; details: protein: recombinant;recombinant; tags: His-SUMO (N-terminal); copies: 1;1; about 25 bp visible
Chain of SIR2-APAZ;short prokaryotic Ago (SIR2-APAZ system) (chain, as listed by the source |, chain 1 of 2): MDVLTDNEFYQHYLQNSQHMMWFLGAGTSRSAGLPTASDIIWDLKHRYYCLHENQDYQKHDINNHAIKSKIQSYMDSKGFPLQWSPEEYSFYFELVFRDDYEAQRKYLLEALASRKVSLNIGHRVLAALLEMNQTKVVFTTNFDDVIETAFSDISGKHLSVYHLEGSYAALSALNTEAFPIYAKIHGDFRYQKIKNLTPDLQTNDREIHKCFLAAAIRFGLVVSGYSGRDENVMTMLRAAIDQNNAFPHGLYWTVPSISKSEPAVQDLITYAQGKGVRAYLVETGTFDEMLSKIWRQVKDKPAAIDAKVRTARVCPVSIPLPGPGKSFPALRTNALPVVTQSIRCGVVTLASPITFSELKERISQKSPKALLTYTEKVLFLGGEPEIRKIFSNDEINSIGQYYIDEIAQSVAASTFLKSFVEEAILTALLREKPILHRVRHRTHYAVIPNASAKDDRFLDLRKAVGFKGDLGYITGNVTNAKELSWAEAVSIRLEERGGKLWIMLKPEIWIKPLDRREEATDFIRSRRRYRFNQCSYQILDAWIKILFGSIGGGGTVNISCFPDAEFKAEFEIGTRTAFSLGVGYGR
Chain of SIR2-APAZ;short prokaryotic Ago (SIR2-APAZ system) (chain, as listed by the source |, chain 2 of 2): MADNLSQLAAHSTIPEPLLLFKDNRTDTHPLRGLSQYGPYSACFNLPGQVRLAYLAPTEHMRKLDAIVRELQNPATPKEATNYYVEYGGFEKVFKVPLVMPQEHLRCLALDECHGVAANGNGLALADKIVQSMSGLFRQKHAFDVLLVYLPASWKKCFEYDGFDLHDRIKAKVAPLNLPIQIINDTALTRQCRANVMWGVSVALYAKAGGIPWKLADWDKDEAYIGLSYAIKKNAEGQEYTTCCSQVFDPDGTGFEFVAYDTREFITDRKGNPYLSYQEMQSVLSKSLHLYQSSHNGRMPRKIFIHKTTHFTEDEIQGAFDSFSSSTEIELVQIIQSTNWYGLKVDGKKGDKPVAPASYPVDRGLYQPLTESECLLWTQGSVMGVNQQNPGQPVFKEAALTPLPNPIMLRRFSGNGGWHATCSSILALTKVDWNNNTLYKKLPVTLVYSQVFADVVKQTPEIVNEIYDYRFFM

Ago protein from Maribacter polysiphoniae (natural protein)
stoichiometry N [1]: 2

TIR-APAZ protein from Maribacter polysiphoniae (natural protein)
stoichiometry N [2]: 4

TIR-APAZ/Ago complex from Maribacter polysiphoniae
stoichiometry N [3]: 4

B1: gRNA + target ssDNA (SIR2-APAZ/Ago) (DNA:RNA)
RNA: AUAAUGGUUUCUUAGACGUCGUUUUAGAGCUGUGUUGUUUCG
DNA: CGAAACAACACAGCTCTAAAACGACGTCTAAGAAACCATTAT
modifications: 5'-phosphate on gRNA
binding result [4]: binds
